One test addresses T1, human serum albumin (human, UniProt P02768 25-609).
T1 construct: also called HSA; HAS
Kind of test: isothermal titration calorimetry, HSA injected into ABD-Dox in PBS at 37 C, independent binding site model.

In the next test the target is T2, mouse serum albumin (mouse, UniProt P07724 25-608).
T2 construct: also called MSA
The experiment in a line: isothermal titration calorimetry, MSA injected into ABD-Dox in PBS at 37 C, independent binding site model. (Isothermal titration calorimetry measures the heat released or taken up as one component is titrated into another.)

No end group written: not given here.

T2 sequence (P07724 25-608 limits assumed): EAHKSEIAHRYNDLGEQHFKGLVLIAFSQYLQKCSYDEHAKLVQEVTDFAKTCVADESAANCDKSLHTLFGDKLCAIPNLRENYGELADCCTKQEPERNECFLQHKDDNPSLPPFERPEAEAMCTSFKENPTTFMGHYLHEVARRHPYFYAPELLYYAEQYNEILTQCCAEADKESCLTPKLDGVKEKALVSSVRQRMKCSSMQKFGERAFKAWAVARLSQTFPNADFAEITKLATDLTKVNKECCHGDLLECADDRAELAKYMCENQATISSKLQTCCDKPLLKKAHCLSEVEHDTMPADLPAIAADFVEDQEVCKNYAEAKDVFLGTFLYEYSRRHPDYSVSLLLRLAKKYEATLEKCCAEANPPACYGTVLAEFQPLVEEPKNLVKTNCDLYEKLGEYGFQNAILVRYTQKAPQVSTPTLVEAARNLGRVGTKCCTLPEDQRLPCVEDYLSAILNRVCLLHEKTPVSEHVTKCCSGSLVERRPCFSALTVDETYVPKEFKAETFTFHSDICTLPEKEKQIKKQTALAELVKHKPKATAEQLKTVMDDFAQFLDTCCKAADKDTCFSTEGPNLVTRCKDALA

B1: ABD-Dox (ABD-(CGG)4-Dox with 1 and 2 conjugated Dox molecules) (peptide)
chain: GLAEAKVLANRELDKYGVSDYYKNLINNAKTVEGVKALIDEILAALPCGGCGGCGGCGG
modifications: also: 1-2 doxorubicin via EMCH (maleimide, hydrazone) on Cys of C-terminal (CGG)4
notes: Product of sortase A cleavage of KEKE-ELP160-srt-ABD-(CGG)4-Dox; also called AlBiPeD
For the molecule B1, in the test with human serum albumin, the Kd (in general, a measure of binding affinity in units of concentration) is 125 nM; the ΔH is -6.72 kcal/mol; the ΔS was found to be 41.5 Jmol^-1K^-1. In addition, in the test with mouse serum albumin, binding was characterised by a dissociation constant (Kd) of 73.8 nM, the ΔH is -4.45 kcal/mol and the ΔS amounted to 76.6 Jmol^-1K^-1.

The values above are taken from patent publication US20210060171A1 (DUKE UNIVERSITY, published 2021).
